# B1: CPEB3 Ribozyme (parent)
# chain: UAACAGGGGGCCACAGCAGAAGCGUUCACGUCGCAGCCCCUGUCAGAUUCUGGUGAAUCUGCGAAUUCUGCUGUAUAUCUC
# Variants of: B1
# Test: self-cleavage, relative activity (ratio to wild type); higher = more cleavage; in vitro, sequencing
# In short: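 After error-prone PCR and barcoding, CPEB3 ribozyme mutant libraries were transcribed with T7 RNA polymerase at 37°C for 5 hours, then given 15 min with DNase I before an EDTA stop, and they cleaved during both steps. Reverse transcription with template switching preceded Illumina sequencing. Relative activity divides a variant's cleaved/total read fraction by the unmutated ribozyme's. At least 5 reads were required per variant, and three batches were averaged.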
row,Variant,self-cleavage
1,UAACAGGGGGCCACAGCAGAAGCGUUCACGUCGCAGCCCCUGUCAGAUUCUGGAGAAUCUGCGAGUUCUGCUGUAUAUCUC [U54A A65G],0.55
2,UAACAGGGGGCCACAGCAGAAGCGUUCACGUCGCAGCCCCUGUCAGAUUCUGGAGAAUCUGCGAUUUCUGCUGUAUAUCUC [U54A A65U],0.26
3,UAACAGGGGGCCACAGCAGAAGCGUUCACGUCGCAGCCCCUGUCAGAUUCUGGAGAAUCUGCGACUUCUGCUGUAUAUCUC [U54A A65C],0.29
4,UAACAGGGGGCCACAGCAGAAGCGUUCACGUCGCAGCCCCUGUCAGAUUCUGGAGAAUCUGUGAAUUCUGCUGUAUAUCUC [U54A C62U],0.25
5,UAACAGGGGGCCACAGCAGAAGCGUUCACGUCGCAGCCCCUGUCAGAUUCUGGAGAAUCUGGGAAUUCUGCUGUAUAUCUC [U54A C62G],0.42
6,UAACAGGGGGCCACAGCAGAAGCGUUCACGUCGCAGCCCCUGUCAGAUUCUGGAGAAUCUGAGAAUUCUGCUGUAUAUCUC [U54A C62A],0.32
7,UAACAGGGGGCCACAGCAGAAGCGUUCACGUCGCAGCCCCUGUCAGAUUCUGGAGAAUCUUCGAAUUCUGCUGUAUAUCUC [U54A G61U],0.76
8,UAACAGGGGGCCACAGCAGAAGCGUUCACGUCGCAGCCCCUGUCAGAUUCUGGAGAAUCUACGAAUUCUGCUGUAUAUCUC [U54A G61A],0.73
9,UAACAGGGGGCCACAGCAGAAGCGUUCACGUCGCAGCCCCUGUCAGAUUCUGGAGAAUCUGCGAAUUUUGCUGUAUAUCUC [U54A C68U],1.03
10,UAACAGGGGGCCACAGCAGAAGCGUUCACGUCGCAGCCCCUGUCAGAUUCUGGAGAAUCUGCGAAUUAUGCUGUAUAUCUC [U54A C68A],0.44
11,UAACAGGGGGCCACAGCAGAAGCGUUCACGUCGCAGCCCCUGUCAGAUUCUGUUGAAUCUGCGAAUUCUGCUGUAUAUCUG [G53U C81G],1.24
12,UAACAGGGGGCCACAGCAGAAGCGUUCACGUCGCAGCCCCUGUCAGAUUCUGGAGAAUCUGCGAAUUCUGAUGUAUAUCUC [U54A C71A],0.42
13,UAACAGGGGGCCACAGCAGAAGCGUUCACGUCGCAGCCCCUGUCAGAUUCUGCUGAAUCUGCGAAUUCUGCUGUAAAUCUC [G53C U76A],1.22
14,UAACAGGGGGCCACAGCAGAAGCGUUCACGUCGCAGCCCCUGUCAGAUUCUGCUGAAUCUGCGAAUUCUGCUGUACAUCUC [G53C U76C],1.06
15,UAACAGGGGGCCACAGCAGAAGCGUUCACGUCGCAGCCCCUGUCAGAUUCUGGAAAAUCUGCGAAUUCUGCUGUAUAUCUC [U54A G55A],0.8
16,UAACAGGGGGCCACAGCAGAAGCGUUCACGUCGCAGCCCCUGUCAGAUUCUGGAUAAUCUGCGAAUUCUGCUGUAUAUCUC [U54A G55U],1.15
17,UAACAGGGGGCCACAGCAGAAGCGUUCACGUCGCAGCCCCUGUCAGAUUCUGGAGAAUCUGCGAAUUCUGCUGUAUAUCUU [U54A C81U],1.2
18,UAACAGGGGGCCACAGCAGAAGCGUUCACGUCGCAGCCCCUGUCAGAUUCUGUUGAAUCUGCGAAUUCUGCUGAAUAUCUC [G53U U74A],1.2
19,UAACAGGGGGCCACAGCAGAAGCGUUCACGUCGCAGCCCCUGUCAGAUUCUGUUGAAUCUGCGAAUUCUGCUGCAUAUCUC [G53U U74C],1.18
20,UAACAGGGGGCCACAGCAGAAGCGUUCACGUCGCAGCCCCUGUCAGAUUCUGUUGAACCUGCGAAUUCUGCUGUAUAUCUC [G53U U58C],1.08
21,UAACAGGGGGCCACAGCAGAAGCGUUCACGUCGCAGCCCCUGUCAGAUUCUGUUGAAUCUGCGAAUUUUGCUGUAUAUCUC [G53U C68U],1.13
22,UAACAGGGGGCCACAGCAGAAGCGUUCACGUCGCAGCCCCUGUCAGAUUCUGGAGAAACUGCGAAUUCUGCUGUAUAUCUC [U54A U58A],0.45
23,UAACAGGGGGCCACAGCAGAAGCGUUCACGUCGCAGCCCCUGUCAGAUUCUGGAGAAGCUGCGAAUUCUGCUGUAUAUCUC [U54A U58G],0.42

row,Variant,self-cleavage
1,UAACAGGGGGCCACAGCAGAAGCGUUCACGUCGCAGCCCCUGUCAGAUUCUGGAGAACCUGCGAAUUCUGCUGUAUAUCUC [U54A U58C],0.69
2,UAACAGGGGGCCACAGCAGAAGCGUUCACGUCGCAGCCCCUGUCAGAUUCUGGAGAAUCUGCGAAUUCUGCUGUAUAUAUC [U54A C79A],1.23
3,UAACAGGGGGCCACAGCAGAAGCGUUCACGUCGCAGCCCCUGUCAGAUUCUGGAGAAUCUGCGAAUUCUGCUGUAUAUUUC [U54A C79U],1.16
4,UAACAGGGGGCCACAGCAGAAGCGUUCACGUCGCAGCCCCUGUCAGAUUCUGGAGAAUCUGCGAAUUCUGCUGUAUAUGUC [U54A C79G],1.23
5,UAACAGGGGGCCACAGCAGAAGCGUUCACGUCGCAGCCCCUGUCAGAUUCUGGAGAAUCUGCGAAUUCUGCUGUAUAUCUC [U54A],1.09
6,UAACAGGGGGCCACAGCAGAAGCGUUCACGUCGCAGCCCCUGUCAGAUUCUGGAGAAUCUGCGAAUUCUCCUGUAUAUCUC [U54A G70C],0.39
7,UAACAGGGGGCCACAGCAGAAGCGUUCACGUCGCAGCCCCUGUCAGAUUCUGCUGAAUCUGCGAAUUCUGCUGUAUACCUC [G53C U78C],1.08
8,UAACAGGGGGCCACAGCAGAAGCGUUCACGUCGCAGCCCCUGUCAGAUUCUGUUGAAUCUGCGAAUUCUGCUGUACAUCUC [G53U U76C],1.22
9,UAACAGGGGGCCACAGCAGAAGCGUUCACGUCGCAGCCCCUGUCAGAUUCUGGAGAAUCUGCGUAUUCUGCUGUAUAUCUC [U54A A64U],0.37
10,UAACAGGGGGCCACAGCAGAAGCGUUCACGUCGCAGCCCCUGUCAGAUUCUGGAGAAUCUGCGCAUUCUGCUGUAUAUCUC [U54A A64C],0.16
11,UAACAGGGGGCCACAGCAGAAGCGUUCACGUCGCAGCCCCUGUCAGAUUCUGGAGAAUCUGCGGAUUCUGCUGUAUAUCUC [U54A A64G],0.92
12,UAACAGGGGGCCACAGCAGAAGCGUUCACGUCGCAGCCCCUGUCAGAUUCUGGAGAAUCGGCGAAUUCUGCUGUAUAUCUC [U54A U60G],0.65
13,UAACAGGGGGCCACAGCAGAAGCGUUCACGUCGCAGCCCCUGUCAGAUUCUGGAGAAUCCGCGAAUUCUGCUGUAUAUCUC [U54A U60C],0.67
14,UAACAGGGGGCCACAGCAGAAGCGUUCACGUCGCAGCCCCUGUCAGAUUCUGGAGAAUCAGCGAAUUCUGCUGUAUAUCUC [U54A U60A],0.68
15,UAACAGGGGGCCACAGCAGAAGCGUUCACGUCGCAGCCCCUGUCAGAUUCUGGAGAAUCUGCGAAUUCUGCUGUGUAUCUC [U54A A75G],1
16,UAACAGGGGGCCACAGCAGAAGCGUUCACGUCGCAGCCCCUGUCAGAUUCUGGAGAAUCUGCGAAUUCUGCUGUUUAUCUC [U54A A75U],1.21
17,UAACAGGGGGCCACAGCAGAAGCGUUCACGUCGCAGCCCCUGUCAGAUUCUGGAGAAUCUGCGAAUUCUGCUGUCUAUCUC [U54A A75C],1.19
18,UAACAGGGGGCCACAGCAGAAGCGUUCACGUCGCAGCCCCUGUCAGAUUCUGCUGAAUCUGCGAAUUCAGCUGUAUAUCUC [G53C U69A],0.49
19,UAACAGGGGGCCACAGCAGAAGCGUUCACGUCGCAGCCCCUGUCAGAUUCUGCUGAAUCUGCGAAUUCCGCUGUAUAUCUC [G53C U69C],0.64
20,UAACAGGGGGCCACAGCAGAAGCGUUCACGUCGCAGCCCCUGUCAGAUUCUGUUGAAUCUGCGAAUUCUGCCGUAUAUCUC [G53U U72C],1.2
21,UAACAGGGGGCCACAGCAGAAGCGUUCACGUCGCAGCCCCUGUCAGAUUCUGUUGAAUCUGCGAAUUCUGCAGUAUAUCUC [G53U U72A],0.94
22,UAACAGGGGGCCACAGCAGAAGCGUUCACGUCGCAGCCCCUGUCAGAUUCUGUUGAAUCUGCGAAUUCUGCUGUAUAUCUC [G53U],1.21
23,UAACAGGGGGCCACAGCAGAAGCGUUCACGUCGCAGCCCCUGUCAGAUUCUGUUGAAUCUGCGAGUUCUGCUGUAUAUCUC [G53U A65G],0.61

row,Variant,self-cleavage
1,UAACAGGGGGCCACAGCAGAAGCGUUCACGUCGCAGCCCCUGUCAGAUUCUGUUGAAUCUGCGAUUUCUGCUGUAUAUCUC [G53U A65U],0.25
2,UAACAGGGGGCCACAGCAGAAGCGUUCACGUCGCAGCCCCUGUCAGAUUCUGCUGAAUCUGCGAAUUCUGCAGUAUAUCUC [G53C U72A],1.19
3,UAACAGGGGGCCACAGCAGAAGCGUUCACGUCGCAGCCCCUGUCAGAUUCUGCUGAAUCUGCGAAUUCUGCCGUAUAUCUC [G53C U72C],1.21
4,UAACAGGGGGCCACAGCAGAAGCGUUCACGUCGCAGCCCCUGUCAGAUUCUGUUGAAUCUGCGAAUUCCGCUGUAUAUCUC [G53U U69C],0.59
5,UAACAGGGGGCCACAGCAGAAGCGUUCACGUCGCAGCCCCUGUCAGAUUCUGUUGAAUCUGCGGAUUCUGCUGUAUAUCUC [G53U A64G],0.97
6,UAACAGGGGGCCACAGCAGAAGCGUUCACGUCGCAGCCCCUGUCAGAUUCUGGAGAGUCUGCGAAUUCUGCUGUAUAUCUC [U54A A57G],0.91
7,UAACAGGGGGCCACAGCAGAAGCGUUCACGUCGCAGCCCCUGUCAGAUUCUGGAGAUUCUGCGAAUUCUGCUGUAUAUCUC [U54A A57U],1.04
8,UAACAGGGGGCCACAGCAGAAGCGUUCACGUCGCAGCCCCUGUCAGAUUCUGGAGACUCUGCGAAUUCUGCUGUAUAUCUC [U54A A57C],0.77
9,UAACAGGGGGCCACAGCAGAAGCGUUCACGUCGCAGCCCCUGUCAGAUUCUGCUGAAUCUGCGAAUUCUGCUGUAUAUCAC [G53C U80A],1.22
10,UAACAGGGGGCCACAGCAGAAGCGUUCACGUCGCAGCCCCUGUCAGAUUCUGCUGAAUCUGCGAAUUCUGCUGUAUAUCCC [G53C U80C],0.96
11,UAACAGGGGGCCACAGCAGAAGCGUUCACGUCGCAGCCCCUGUCAGAUUCUGUAGAAUCUGCGAAUUCUGCUGUAUAUCUC [G53U U54A],0.98
12,UAACAGGGGGCCACAGCAGAAGCGUUCACGUCGCAGCCCCUGUCAGAUUCUGGAGAAUGUGCGAAUUCUGCUGUAUAUCUC [U54A C59G],0.35
13,UAACAGGGGGCCACAGCAGAAGCGUUCACGUCGCAGCCCCUGUCAGAUUCUGGAGAAUCUGCAAAUUCUGCUGUAUAUCUC [U54A G63A],0.95
14,UAACAGGGGGCCACAGCAGAAGCGUUCACGUCGCAGCCCCUGUCAGAUUCUGGAGAAUCUGCGAAUUCUGCUUUAUAUCUC [U54A G73U],1.27
15,UAACAGGGGGCCACAGCAGAAGCGUUCACGUCGCAGCCCCUGUCAGAUUCUGGAGAAUCUGCGAAUUCUGCUAUAUAUCUC [U54A G73A],1.25
16,UAACAGGGGGCCACAGCAGAAGCGUUCACGUCGCAGCCCCUGUCAGAUUCUGUUGAAUCUGCGAAGUCUGCUGUAUAUCUC [G53U U66G],0.66
17,UAACAGGGGGCCACAGCAGAAGCGUUCACGUCGCAGCCCCUGUCAGAUUCUGUUGAAUCUGCGAAUCCUGCUGUAUAUCUC [G53U U67C],0.21
18,UAACAGGGGGCCACAGCAGAAGCGUUCACGUCGCAGCCCCUGUCAGAUUCUGGAGUAUCUGCGAAUUCUGCUGUAUAUCUC [U54A A56U],0.66
19,UAACAGGGGGCCACAGCAGAAGCGUUCACGUCGCAGCCCCUGUCAGAUUCUGGAGGAUCUGCGAAUUCUGCUGUAUAUCUC [U54A A56G],0.82
20,UAACAGGGGGCCACAGCAGAAGCGUUCACGUCGCAGCCCCUGUCAGAUUCUGGAGAAUCUGCGAAUUCUGCUGUAUCUCUC [U54A A77C],1.12
21,UAACAGGGGGCCACAGCAGAAGCGUUCACGUCGCAGCCCCUGUCAGAUUCUGGAGAAUCUGCGAAUUCUGCUGUAUGUCUC [U54A A77G],1.06
22,UAACAGGGGGCCACAGCAGAAGCGUUCACGUCGCAGCCCCUGUCAGAUUCUGGAGAAUCUGCGAAUUCUGCUGUAUUUCUC [U54A A77U],1.23

# From the RNAGym collection of RNA variant scans (doi:10.1093/nar/gkz1192)
